# Laboratory results taken from PMC6158681.
# Biological target: SpyCatcher-mi3 (Streptococcus pyogenes | Thermotoga maritima)
substance,measurement,value
SpyTag-MBP,% conjugation,91%
